Test results taken from publication PMC6411835.

Target: T1, Zip2(499-704);Spo16 (Saccharomyces cerevisiae;Saccharomyces cerevisiae) (UniProt P53061+P17122)
T1 sequence 1: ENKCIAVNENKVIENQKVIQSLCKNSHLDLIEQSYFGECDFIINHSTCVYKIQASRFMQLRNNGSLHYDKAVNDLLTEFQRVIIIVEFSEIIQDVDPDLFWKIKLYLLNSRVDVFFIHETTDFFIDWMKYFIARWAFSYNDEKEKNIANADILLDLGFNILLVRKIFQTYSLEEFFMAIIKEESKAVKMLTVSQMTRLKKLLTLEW
T1 sequence 2: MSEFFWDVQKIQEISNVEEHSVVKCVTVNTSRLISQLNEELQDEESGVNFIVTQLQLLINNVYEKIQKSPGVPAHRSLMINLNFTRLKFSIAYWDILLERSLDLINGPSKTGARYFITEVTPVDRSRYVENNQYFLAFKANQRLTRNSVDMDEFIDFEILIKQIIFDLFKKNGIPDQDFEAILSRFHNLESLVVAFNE
Experiment: EMSA

nicked Holliday Junction
Kd: 5 µM
